In patent US6750028B1, “Anti-fibrotic agent assay” (Ethicon, Inc, priority 1996, dated 2004):

Test system: TGF-β1 activation
Experiment: Macrophage activation assay (IC-21 macrophages, LPS, fetal fibroblast conditioned media, ELISA)
Assay type: cell-based, mouse
Experimental: Cultured macrophages were lifted from the dish with 3 ml of PBS. The PBS was balanced with 15 ml of RPMI-1640 containing 10% FBS. The cells were counted and then seeded in 100 mm plates at 1×10^6 cells/dish. When the cultured macrophages reached approximately 70% confluency (2-3 days) they were washed with PBS and RPMI-1640 medium containing 5% FBS and 10 ng/ml LPS was applied (FIG. 1). After 24 h of activation with LPS the cells were washed gently with PBS. At this point conditioned medium from confluent fetal dermal fibroblasts was collected and 5 ml was distributed into each dish containing macrophages. The cells were incubated for an additional 24 h, the media were collected, spun down at 600×g for 10 min and stored at 4° C. before TGF-β1 evaluation by ELISA. Each condition was done in duplicate. The cells, washed with PBS, were harvested for total RNA extraction.
Fetal dermal fibroblasts were seeded in 100 mm dishes at 1×10^6 cell/dish. The cells were grown to confluency (2-3 days). The cultures were washed with PBS and fresh medium, either DMEM supplemented with 10% FBS or AIM-V medium (a serum free medium) for serum-free conditions, was applied for 24 h (FIG. 1). The medium was collected and combined in order to obtain a homogenous pool of latent TGF-β1. The collection of the medium was done just prior to application in the macrophage assay. […]

Molecule	effect on IGF-II-mediated inhibition of TGF-β1 activation, in words
IGFBP-2: Purified rat Insulin-like Growth Factor Binding Protein 2 (protein, UniProt P12843 35-304, looked up) Insulin-like growth …: EVLFRCPPCTPERLAACGPPPDAPCAELVREPGCGCCSVCARQEGEACGVYIPRCAQTLRCYPNPGSELPLKALVTGAGTCEKRRVGATPQQVADSEDDHSEGGLVENHVDGTMNMLGGSSAGRKPPKSGMKELAVFREKVNEQHRQMGKGAKHLSLEEPKKLRPPPARTPCQQELDQVLERISTMRLPDDRGPLEHLYSLHIPNCDKHGLYNLKQCKMSLNGQRGECWCVNPNTGKPIQGAPTIRGDPECHLFYNEQQENDGAHAQRVQ	no effect on IGF-II action
IGFBP-1: Purified rat Insulin-like Growth Factor Binding Protein 1 (protein, UniProt P21743 26-272, looked up) Insulin-like growth …: APQPWHCAPCTAERLELCPPVPASCPEISRPAGCGCCPTCALPLGAACGVATARCAQGLSCRALPGEPRPLHALTRGQGACVLEPAAPATSSLSGSQHEEAKAAVASEDELAESPEMTEEQLLDSFHLMAPSREDQPILWNAISTYSSMRAREITDLKKWKEPCQRELYKVLERLAAAQQKAGDEIYKFYLPNCNKNGFYHSKQCETSLDGEAGLCWCVYPWSGKKIPGSLETRGDPNCHQYFNVQN	able to reverse this inhibition
